T1: GFP-DBR1 (human, UniProt Q9UK59 1-544)
T1 sequence: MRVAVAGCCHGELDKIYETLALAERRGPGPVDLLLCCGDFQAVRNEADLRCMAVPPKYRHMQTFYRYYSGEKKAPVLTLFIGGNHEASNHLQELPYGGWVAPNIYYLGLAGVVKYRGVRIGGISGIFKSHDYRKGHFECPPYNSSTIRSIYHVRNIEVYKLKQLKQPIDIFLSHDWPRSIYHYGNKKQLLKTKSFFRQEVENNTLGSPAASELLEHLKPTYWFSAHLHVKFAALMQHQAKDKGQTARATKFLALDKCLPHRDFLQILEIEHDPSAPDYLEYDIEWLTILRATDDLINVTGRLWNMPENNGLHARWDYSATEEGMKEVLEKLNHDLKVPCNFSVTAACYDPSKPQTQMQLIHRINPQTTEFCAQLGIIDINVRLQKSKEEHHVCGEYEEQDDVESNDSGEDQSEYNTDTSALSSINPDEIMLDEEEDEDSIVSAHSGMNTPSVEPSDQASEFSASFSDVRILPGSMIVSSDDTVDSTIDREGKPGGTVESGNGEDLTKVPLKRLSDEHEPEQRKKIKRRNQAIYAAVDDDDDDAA

T2: His-Flag-DBR1 (human, UniProt Q9UK59 1-544)
T2 sequence (looked up): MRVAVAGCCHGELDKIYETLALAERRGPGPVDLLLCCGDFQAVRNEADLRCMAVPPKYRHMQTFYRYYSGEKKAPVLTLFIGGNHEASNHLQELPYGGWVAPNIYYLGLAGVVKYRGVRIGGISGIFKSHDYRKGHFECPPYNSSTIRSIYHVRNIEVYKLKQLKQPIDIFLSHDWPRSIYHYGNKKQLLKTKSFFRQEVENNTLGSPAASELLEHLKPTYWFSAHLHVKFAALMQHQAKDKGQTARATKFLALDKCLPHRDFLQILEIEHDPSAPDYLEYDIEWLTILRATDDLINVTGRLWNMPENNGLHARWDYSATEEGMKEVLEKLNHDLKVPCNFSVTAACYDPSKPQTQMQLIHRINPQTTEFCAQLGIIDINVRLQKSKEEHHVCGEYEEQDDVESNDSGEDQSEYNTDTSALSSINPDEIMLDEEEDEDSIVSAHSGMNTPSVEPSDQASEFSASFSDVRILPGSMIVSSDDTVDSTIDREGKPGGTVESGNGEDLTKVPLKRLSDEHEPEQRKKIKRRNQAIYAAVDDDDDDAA


What was measured:
[1] = target: T1, GFP-DBR1; assay: pull-down
[2] = target: T2, His-Flag-DBR1; assay: pull-down

Binder	binding result [1]	binding result [2]
TTDN1-mCherry (natural protein, human, UniProt Q8TAP9 1-179, looked up) MQRQNFRPPTPPYPGPGGGGWGSGSSFRGTPGGGGPRPPSPRDGYGSPHHTPPYGPRSRPYGSSHSPRHGGSFPGGRFGSPSPGGYPGSYSRSPAGSQQQFGYSPGQQQTHPQGSPRTSTPFGSGRVREKRMSNELENYFKPSMLEDPWAGLEPVSVVDISQQYSNTQTFTGKKGRYFC	binds	
GST-TTDN1 (natural protein, human, UniProt Q8TAP9 1-179, looked up) MQRQNFRPPTPPYPGPGGGGWGSGSSFRGTPGGGGPRPPSPRDGYGSPHHTPPYGPRSRPYGSSHSPRHGGSFPGGRFGSPSPGGYPGSYSRSPAGSQQQFGYSPGQQQTHPQGSPRTSTPFGSGRVREKRMSNELENYFKPSMLEDPWAGLEPVSVVDISQQYSNTQTFTGKKGRYFC		binds

Reference: publication doi:10.1101/2022.11.03.515106 (bioRxiv, 2022)
